Measurements from the supplement of paper PMC10567573.

B1: TAF7L (parent)
chain: PDVENEVKRLLRSDAEAVSTRWEV
B2: C22orf15 (parent)
chain: RGRHEQSPTSRPRKVSSLPPRSC

Variants of: B1
Experiment: protein stability index of a GFP-peptide fusion (GPS, HEK-293T) (PSI 1-6); higher = more stable
Conditions: c terminus: a fixed tail appended
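Note: lentivirally expressed fusions sorted by FACS into six bins by GFP to DsRed ratio, PSI derived from sequencing read proportions per bin multiplied by bin number.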

Protein stability index, by site and new letter:
P1: E 4.44; T 3.29; N 3.43; R 2.36; D 2.96; S 4.05; A 2.92; H 2.27; I 2.79; Y 3; K 3.27; L 3.52
E6: K 3.17; G 3.25; H 2.9; C 2.9; M 2.05; R 3.65; N 3.12; P 4.02; S 3.21
L10: Q 3.25; W 2.86; F 3.42; H 3.82; K 3.8; T 4.36
K8: N 3.08; Q 3.34; C 3.23; E 3.6; M 2.78; F 2.2; V 3.44; Y 2.23; H 4.25; P 4.16; I 2.51; W 2.19
V3: K 4.4; F 3.32; T 3.99; D 4.13; P 4.43; S 3.13; H 3.86; Q 3.79; E 4.74; C 3.75; M 3.5; N 3.09; G 3.05
R9: Y 2.41; M 3.96; H 4.05; C 3.39; F 2.69; D 4.41; N 3.66; P 4.17; Q 3.83; T 3.44; L 3.29; K 4.02; G 3.57
N5: Q 3.07; A 3.79; Y 3.1; K 3.21; F 2.62; L 2.82; P 3.57; M 2.81; S 2.03; W 2.95
S13: E 4.19; F 1.9; D 4.14
D2: Y 2.81; Q 2.62; V 3.2; A 3.91; L 2.56; I 1.94; P 3.58; M 3.13; H 2.69; T 2.59; F 3.15; K 3.71; C 2.9
R12: H 4.38; N 3.87; A 3.5; F 2.88; V 2.96; Y 3.96; C 2.99; D 4; E 4.54; S 3.75; K 4.19; P 4.61; W 2.33
V7: P 4.57; N 2.94; T 4.13; I 2.73; H 4.06; M 3.47; Y 3.31; S 3.56; K 4.23; Q 3.68; C 3.07; G 4.2; W 3.13
E4: Q 3.21; P 3.86; A 4.39; K 3.35; Y 3.14; D 2.19; M 1.69; V 2.76; C 2.38; W 1.93; G 2.92; T 3.17; N 3.05; F 1
L11: N 4.79; A 4.29; M 3.14; E 5.07; Q 4.35; R 4.2; D 4.9; P 4.74; S 3.53; K 4.37; C 3.25; T 4.11

Variants of: B2
Experiment: as above
Conditions: c terminus: native

Protein stability index: each site, then its substitutions
S7: R 2.69; N 2.44; Y 2.32; V 3.68; F 2.94; D 2.76
S22: E 2.6; D 1.39; P 3.03; L 2.35; Q 2.27; T 3.62; H 4.07
R13: Q 1.47; Y 1.49; L 3.56; M 3.68; H 3.08; S 2.15; D 4.32; F 2.43; E 2.88; T 2.73; W 1.54; C 3.56
E5: Y 4.38; N 2.19; P 2.93; F 2.19; L 2.09; K 2.68; R 2.19
R21: Y 4.92; I 2.83; W 4.43; G 1.74; Q 4.51; V 2.88; E 5.2; K 5.13; S 4.8; N 4.68; P 4.74; F 4.25; M 3.66; H 4.53; L 3.37; T 4.25; A 4.53; D 5.37; C 3.38
P12: T 2.55; M 1.89; D 2.8; G 1.4; W 2.55; Y 3.13; Q 3.88; H 2.55
L18: H 3.38; A 1.68; T 4.07; V 3.25; I 2.76; C 2.88; D 1.5; M 3.65; Y 2.29; W 3.64
T9: G 2.07; K 2.44; A 3.73; C 1.52; S 2.58; Y 2.35; H 1.83; R 3.3
P20: D 3.82; V 2.26; I 2.72; C 1.58; Y 2.1; A 3; F 4.13; E 2.84; S 1.99
P8: K 3.28; N 2.71; C 3.78; R 4.11; H 3.48; G 2.55; Q 2.65
H4: T 3.06; V 2.38
S16: M 2.63; F 3.32; A 1.95; I 1.98; K 2.94; P 2.77; Q 2.92; D 2.87; W 1.81; T 2.07; N 2.53; Y 3.44; H 2.57; V 3.6
V15: N 2.71; G 2.29; C 2.52; D 1.97; P 4.67; Q 2.22; L 3.74; H 4.12; S 2.1; R 2.8; K 3.42; F 3.96; T 1.82
K14: G 3.13; T 4.73; Y 2.54; Q 4.04; E 3.42; F 3.52; I 2.67; D 3.71; V 3.29; W 1.93; N 1.24
S10: R 1.8; T 2.83; V 2.85; F 1.99; P 1.61; K 1.93; H 1.87; C 2.51; D 1.09; A 1.64
C23: H 2.29; V 3.28; L 2.42; Y 3.2; N 5.09; T 2.97; F 3.5; I 1.8; Q 2.29; W 2.64
Q6: L 2.54; T 1.97; W 4.38; V 3.92; Y 2.05; S 1.79; I 4.15
P19: R 2.13; A 4.11; Y 3.14; F 2.19; T 4.33; S 3.79; Q 1.44; I 1.81; M 1.93; V 2.86; D 3.23; L 3.07
S17: I 2.3; N 2.99; Y 2.45; E 3.27; R 3.79; K 1.93; G 1.99; Q 2.34; M 1.89; P 3.73
R11: A 2.33; P 3.98; G 2.87; S 2.31; W 5; K 3.4; N 2.35; T 2.51; Q 3.32
